Laboratory results taken from article PMC9947421.

Tests used:
Test in all cases: AP-MS
[1] = biological target: Yes-associated protein (YAP) (UniProt P46937); conditions: read off a plot
[2] = biological target: DNA-dependent protein kinase, catalytic subunit (PRKDC/DNAPKcs) (UniProt P78527)
[3] = biological target: Rap1-interacting factor 1 (RIF1) (UniProt Q5UIP0)
[4] = biological target: poly(ADP-ribose) polymerase 1 (PARP1) (UniProt P09874)
[5] = biological target: X-ray repair cross-complementing protein 6 (XRCC6) (UniProt P12956); conditions: HEK293 cells
[6] = biological target: transcriptional co-activator with PDZ-binding motif (TAZ) (UniProt Q9GZV5); conditions: read off a plot
VGLL4 = VGLL4 (UniProt Q14135); conditions: read off a plot

Sequence of UniProt P09874 (P09874 whole entry): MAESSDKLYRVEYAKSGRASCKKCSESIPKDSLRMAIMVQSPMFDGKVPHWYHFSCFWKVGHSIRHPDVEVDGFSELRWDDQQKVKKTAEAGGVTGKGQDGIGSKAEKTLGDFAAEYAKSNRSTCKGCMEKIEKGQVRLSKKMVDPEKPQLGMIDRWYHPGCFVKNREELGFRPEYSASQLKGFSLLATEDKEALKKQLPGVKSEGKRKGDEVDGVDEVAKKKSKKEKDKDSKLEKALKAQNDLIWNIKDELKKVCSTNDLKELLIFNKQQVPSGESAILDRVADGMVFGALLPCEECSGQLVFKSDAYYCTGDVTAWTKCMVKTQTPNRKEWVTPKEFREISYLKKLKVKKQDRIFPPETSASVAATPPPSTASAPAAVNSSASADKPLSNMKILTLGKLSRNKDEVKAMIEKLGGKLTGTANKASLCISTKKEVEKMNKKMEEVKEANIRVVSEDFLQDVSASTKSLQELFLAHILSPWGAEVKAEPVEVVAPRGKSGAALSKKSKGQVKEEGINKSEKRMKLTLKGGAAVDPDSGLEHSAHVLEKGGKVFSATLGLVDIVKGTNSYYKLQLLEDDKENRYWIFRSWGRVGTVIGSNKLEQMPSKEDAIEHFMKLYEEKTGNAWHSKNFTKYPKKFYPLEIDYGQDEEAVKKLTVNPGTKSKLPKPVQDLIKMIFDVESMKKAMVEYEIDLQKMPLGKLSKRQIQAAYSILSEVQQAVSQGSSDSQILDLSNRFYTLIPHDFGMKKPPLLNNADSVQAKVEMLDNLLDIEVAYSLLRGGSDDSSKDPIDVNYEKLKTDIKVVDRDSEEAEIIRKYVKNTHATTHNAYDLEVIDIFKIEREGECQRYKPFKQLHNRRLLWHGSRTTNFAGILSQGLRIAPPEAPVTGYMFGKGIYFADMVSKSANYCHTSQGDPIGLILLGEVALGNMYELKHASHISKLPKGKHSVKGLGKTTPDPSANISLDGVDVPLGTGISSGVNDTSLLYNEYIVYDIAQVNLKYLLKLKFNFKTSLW
Sequence of UniProt P78527 (P78527 whole entry): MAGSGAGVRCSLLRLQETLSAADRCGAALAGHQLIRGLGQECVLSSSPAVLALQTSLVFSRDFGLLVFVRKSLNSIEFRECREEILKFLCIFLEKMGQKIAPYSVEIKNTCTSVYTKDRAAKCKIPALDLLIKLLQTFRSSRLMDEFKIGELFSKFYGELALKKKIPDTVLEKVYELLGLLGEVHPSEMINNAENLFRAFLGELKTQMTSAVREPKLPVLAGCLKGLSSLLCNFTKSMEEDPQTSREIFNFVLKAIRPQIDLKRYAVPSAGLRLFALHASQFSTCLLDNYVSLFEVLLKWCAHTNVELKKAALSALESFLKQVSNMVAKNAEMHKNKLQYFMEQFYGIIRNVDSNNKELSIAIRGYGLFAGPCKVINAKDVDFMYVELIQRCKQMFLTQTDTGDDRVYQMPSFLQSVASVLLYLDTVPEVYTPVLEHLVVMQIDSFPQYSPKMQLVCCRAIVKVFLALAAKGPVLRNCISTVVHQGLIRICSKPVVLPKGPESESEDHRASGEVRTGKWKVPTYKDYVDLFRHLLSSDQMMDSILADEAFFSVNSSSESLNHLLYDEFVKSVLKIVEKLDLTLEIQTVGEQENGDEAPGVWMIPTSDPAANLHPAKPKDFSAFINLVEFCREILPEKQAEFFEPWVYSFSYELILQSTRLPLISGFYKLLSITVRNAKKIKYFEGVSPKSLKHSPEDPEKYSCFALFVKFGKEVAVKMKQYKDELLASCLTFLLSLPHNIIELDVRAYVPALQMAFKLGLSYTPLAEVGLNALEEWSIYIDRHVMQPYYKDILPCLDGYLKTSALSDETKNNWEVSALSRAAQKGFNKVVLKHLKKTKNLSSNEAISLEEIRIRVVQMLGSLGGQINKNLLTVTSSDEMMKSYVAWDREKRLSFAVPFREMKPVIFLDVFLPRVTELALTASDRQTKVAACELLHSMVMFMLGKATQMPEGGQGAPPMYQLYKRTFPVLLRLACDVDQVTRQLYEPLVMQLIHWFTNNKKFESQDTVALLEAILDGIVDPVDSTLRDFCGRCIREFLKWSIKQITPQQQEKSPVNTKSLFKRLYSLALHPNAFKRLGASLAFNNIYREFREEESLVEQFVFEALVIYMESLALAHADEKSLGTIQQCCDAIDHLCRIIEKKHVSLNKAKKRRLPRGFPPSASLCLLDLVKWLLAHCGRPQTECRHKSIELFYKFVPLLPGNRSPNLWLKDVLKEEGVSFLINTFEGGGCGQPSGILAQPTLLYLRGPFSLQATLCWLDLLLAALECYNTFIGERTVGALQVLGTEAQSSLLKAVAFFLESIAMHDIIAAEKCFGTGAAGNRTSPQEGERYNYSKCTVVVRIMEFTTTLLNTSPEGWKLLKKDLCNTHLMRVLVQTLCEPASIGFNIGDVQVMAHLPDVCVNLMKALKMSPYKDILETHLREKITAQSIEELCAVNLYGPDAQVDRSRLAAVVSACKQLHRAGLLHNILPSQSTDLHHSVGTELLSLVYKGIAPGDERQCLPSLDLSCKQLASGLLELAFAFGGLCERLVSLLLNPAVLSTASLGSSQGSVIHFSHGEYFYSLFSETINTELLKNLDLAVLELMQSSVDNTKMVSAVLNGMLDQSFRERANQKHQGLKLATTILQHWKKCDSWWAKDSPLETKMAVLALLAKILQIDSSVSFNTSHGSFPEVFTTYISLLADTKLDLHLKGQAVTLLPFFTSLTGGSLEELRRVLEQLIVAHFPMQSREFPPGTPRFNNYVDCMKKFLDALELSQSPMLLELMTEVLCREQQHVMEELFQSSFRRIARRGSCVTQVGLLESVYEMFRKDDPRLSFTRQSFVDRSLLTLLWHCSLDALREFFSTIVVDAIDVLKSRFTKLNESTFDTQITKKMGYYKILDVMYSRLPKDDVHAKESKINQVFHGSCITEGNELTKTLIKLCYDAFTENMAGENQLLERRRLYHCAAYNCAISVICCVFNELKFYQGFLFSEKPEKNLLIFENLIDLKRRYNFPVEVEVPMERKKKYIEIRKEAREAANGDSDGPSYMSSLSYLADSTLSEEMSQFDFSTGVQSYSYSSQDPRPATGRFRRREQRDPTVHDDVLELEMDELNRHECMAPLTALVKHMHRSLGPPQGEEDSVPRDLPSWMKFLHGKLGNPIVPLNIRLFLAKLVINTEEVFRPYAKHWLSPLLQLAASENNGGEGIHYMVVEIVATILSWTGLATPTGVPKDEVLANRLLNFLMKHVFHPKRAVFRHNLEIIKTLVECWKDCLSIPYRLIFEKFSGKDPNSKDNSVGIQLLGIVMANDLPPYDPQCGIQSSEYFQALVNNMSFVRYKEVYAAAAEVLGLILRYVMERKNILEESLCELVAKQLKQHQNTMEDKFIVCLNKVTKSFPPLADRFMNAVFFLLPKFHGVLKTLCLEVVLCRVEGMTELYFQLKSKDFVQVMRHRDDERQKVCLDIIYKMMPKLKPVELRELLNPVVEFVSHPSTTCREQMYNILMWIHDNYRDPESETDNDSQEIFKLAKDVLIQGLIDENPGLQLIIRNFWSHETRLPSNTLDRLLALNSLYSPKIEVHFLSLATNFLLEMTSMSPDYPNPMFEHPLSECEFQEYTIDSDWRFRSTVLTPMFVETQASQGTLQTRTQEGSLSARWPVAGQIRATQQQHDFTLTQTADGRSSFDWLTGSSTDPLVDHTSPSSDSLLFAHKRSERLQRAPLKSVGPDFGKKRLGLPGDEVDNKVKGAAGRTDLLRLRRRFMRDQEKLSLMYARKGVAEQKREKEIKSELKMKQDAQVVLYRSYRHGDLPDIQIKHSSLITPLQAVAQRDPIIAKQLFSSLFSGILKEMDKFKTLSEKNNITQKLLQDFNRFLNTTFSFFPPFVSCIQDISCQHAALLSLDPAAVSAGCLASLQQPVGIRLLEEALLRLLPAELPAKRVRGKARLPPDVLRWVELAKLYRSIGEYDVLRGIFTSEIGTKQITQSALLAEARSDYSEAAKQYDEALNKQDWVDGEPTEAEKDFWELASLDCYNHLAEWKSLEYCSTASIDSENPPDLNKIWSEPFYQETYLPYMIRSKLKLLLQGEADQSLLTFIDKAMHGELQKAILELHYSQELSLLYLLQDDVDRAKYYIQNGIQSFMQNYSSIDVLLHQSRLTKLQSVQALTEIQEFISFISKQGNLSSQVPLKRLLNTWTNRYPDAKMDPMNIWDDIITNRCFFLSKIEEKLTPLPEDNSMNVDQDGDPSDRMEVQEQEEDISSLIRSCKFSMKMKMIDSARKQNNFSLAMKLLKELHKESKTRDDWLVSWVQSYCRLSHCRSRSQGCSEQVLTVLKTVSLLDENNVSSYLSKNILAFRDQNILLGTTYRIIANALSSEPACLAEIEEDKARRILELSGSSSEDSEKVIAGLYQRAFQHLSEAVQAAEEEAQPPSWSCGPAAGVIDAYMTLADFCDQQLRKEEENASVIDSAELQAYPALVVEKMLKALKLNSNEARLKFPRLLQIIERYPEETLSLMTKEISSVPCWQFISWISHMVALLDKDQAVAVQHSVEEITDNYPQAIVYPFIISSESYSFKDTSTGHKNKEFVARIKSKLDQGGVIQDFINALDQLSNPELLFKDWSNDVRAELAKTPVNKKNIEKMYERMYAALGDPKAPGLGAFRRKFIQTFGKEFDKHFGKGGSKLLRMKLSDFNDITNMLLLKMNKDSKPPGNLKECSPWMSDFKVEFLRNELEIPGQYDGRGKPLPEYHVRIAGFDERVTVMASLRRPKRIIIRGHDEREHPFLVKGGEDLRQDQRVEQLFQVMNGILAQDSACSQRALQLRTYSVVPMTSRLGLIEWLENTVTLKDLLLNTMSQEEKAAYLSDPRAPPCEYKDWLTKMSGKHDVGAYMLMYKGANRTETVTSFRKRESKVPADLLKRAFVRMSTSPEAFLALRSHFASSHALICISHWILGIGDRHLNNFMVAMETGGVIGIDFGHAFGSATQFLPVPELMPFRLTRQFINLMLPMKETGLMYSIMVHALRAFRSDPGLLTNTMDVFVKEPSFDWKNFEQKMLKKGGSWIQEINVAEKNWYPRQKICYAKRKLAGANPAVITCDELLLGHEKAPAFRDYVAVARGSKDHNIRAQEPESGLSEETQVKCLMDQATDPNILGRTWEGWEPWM

- response (average sum PSMs) ([1]; Detroit 562 cells, parent: est. 620): 960
- response (average sum PSMs) ([1]; HEK293 cells, parent: est. 200): 230
- response ([2]; Detroit 562 cells, replicate TEAD3 mut_1 (parent: TEAD3_WT_1), parent: 232): 132 PSMs
- response ([2]; Detroit 562 cells, replicate TEAD3 mut_2 (parent: TEAD3_WT_2), parent: 898): 496 PSMs
- response ([2]; Detroit 562 cells, replicate TEAD3 mut_3 (parent: TEAD3_WT_3), parent: 658): 396 PSMs
- response ([2]; HEK293 cells, replicate TEAD3 mut_1 (parent: TEAD3_WT_1), parent: 258): 167 PSMs
- response ([2]; HEK293 cells, replicate TEAD3 mut_2 (parent: TEAD3_WT_2), parent: 223): 195 PSMs
- response ([2]; HEK293 cells, replicate TEAD3 mut_3 (parent: TEAD3_WT_3), parent: 216): 230 PSMs
- response ([3]; Detroit 562 cells, replicate TEAD3 mut_1 (parent: TEAD3_WT_1), parent: 302): 118 PSMs
- response ([3]; Detroit 562 cells, replicate TEAD3 mut_2 (parent: TEAD3_WT_2), parent: 297): 45 PSMs
- response ([3]; Detroit 562 cells, replicate TEAD3 mut_3 (parent: TEAD3_WT_3), parent: 331): 26 PSMs
- response ([3]; HEK293 cells, replicate TEAD3 mut_1): 2 PSMs
- response ([3]; HEK293 cells, replicate TEAD3 mut_2 (parent: TEAD3_WT_2), parent: 3): 1 PSMs
- response ([4]; Detroit 562 cells, replicate TEAD3 mut_1 (parent: TEAD3_WT_1), parent: 90): 6 PSMs
- response ([4]; Detroit 562 cells, replicate TEAD3 mut_2 (parent: TEAD3_WT_2), parent: 76): 5 PSMs
- response ([4]; Detroit 562 cells, replicate TEAD3 mut_3 (parent: TEAD3_WT_3), parent: 87): 8 PSMs
- response ([4]; HEK293 cells, replicate TEAD3 mut_1 (parent: TEAD3_WT_1), parent: 380): 1 PSMs
- response ([4]; HEK293 cells, replicate TEAD3 mut_2 (parent: TEAD3_WT_2), parent: 624): 3 PSMs
- response ([4]; HEK293 cells, replicate TEAD3 mut_3 (parent: TEAD3_WT_3), parent: 950): 4 PSMs
- response ([5]; replicate TEAD3 mut_1 (parent: TEAD3_WT_1), parent: 56): 1 PSMs
- response ([5]; replicate TEAD3 mut_3 (parent: TEAD3_WT_3), parent: 92): 1 PSMs
- response (average sum PSMs) ([6]; Detroit 562 cells, parent: est. 170): 250
- response (average sum PSMs) ([6]; HEK293 cells, parent: est. 23): 22
- response (average sum PSMs) (VGLL4; Detroit 562 cells, parent: est. 90): 75
- response (average sum PSMs) (VGLL4; HEK293 cells, parent: est. 150): 190
Substance: WT TEAD3-Myc/Flag (from UniProt Q99594) … -> … (R>N; K>N; R>N; K>N; K>N; V>N; R>N; residue numbers not printed)
